Source: PMC3326331 (Nucleic Acids Research, 2011)
One block for each binder: values may come before it.

Target: T1, His6-tagged human PSF (polypyrimidine tract binding protein associated splicing factor) (human, UniProt P23246 1-707)
T1 sequence (looked up): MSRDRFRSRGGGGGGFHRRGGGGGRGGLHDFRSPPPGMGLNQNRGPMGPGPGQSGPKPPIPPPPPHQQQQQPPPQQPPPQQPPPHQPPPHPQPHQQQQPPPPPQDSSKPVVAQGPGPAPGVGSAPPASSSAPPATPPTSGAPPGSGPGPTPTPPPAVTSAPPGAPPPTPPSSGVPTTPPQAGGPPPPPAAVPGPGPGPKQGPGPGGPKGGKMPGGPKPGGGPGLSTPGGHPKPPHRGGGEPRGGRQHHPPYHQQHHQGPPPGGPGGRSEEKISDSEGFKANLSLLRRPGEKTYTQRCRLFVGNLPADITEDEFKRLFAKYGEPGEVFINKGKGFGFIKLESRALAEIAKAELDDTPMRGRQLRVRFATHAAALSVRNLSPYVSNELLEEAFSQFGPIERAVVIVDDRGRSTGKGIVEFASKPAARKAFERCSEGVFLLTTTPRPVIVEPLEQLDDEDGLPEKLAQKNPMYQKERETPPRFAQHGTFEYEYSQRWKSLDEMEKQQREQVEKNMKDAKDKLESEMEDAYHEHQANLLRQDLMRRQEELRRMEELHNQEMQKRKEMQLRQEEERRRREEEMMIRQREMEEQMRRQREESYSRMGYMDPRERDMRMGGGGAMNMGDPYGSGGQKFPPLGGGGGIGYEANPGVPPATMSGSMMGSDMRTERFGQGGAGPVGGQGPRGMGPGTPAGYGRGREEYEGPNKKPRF
Assay: pull-down

binding result: binds
B1: human RAD51 (natural protein, UniProt Q06609 1-339, looked up)
chain: MAMQMQLEANADTSVEEESFGPQPISRLEQCGINANDVKKLEEAGFHTVEAVAYAPKKELINIKGISEAKADKILAEAAKLVPMGFTTATEFHQRRSEIIQITTGSKELDKLLQGGIETGSITEMFGEFRTGKTQICHTLAVTCQLPIDRGGGEGKAMYIDTEGTFRPERLLAVAERYGLSGSDVLDNVAYARAFNTDHQTQLLYQASAMMVESRYALLIVDSATALYRTDYSGRGELSARQMHLARFLRMLLRLADEFGVAVVITNQVVAQVDGAAMFAADPKKPIGGNIIAHASTTRLYLRKGRGETRICKIYDSPCLPEAEAMFAINADGVGDAKD

binding result: binds
B2: human DMC1 (natural protein, UniProt Q14565 1-340, looked up)
chain: MKEDQVVAEEPGFQDEEESLFQDIDLLQKHGINVADIKKLKSVGICTIKGIQMTTRRALCNVKGLSEAKVDKIKEAANKLIEPGFLTAFEYSEKRKMVFHITTGSQEFDKLLGGGIESMAITEAFGEFRTGKTQLSHTLCVTAQLPGAGGYPGGKIIFIDTENTFRPDRLRDIADRFNVDHDAVLDNVLYARAYTSEHQMELLDYVAAKFHEEAGIFKLLIIDSIMALFRVDFSGRGELAERQQKLAQMLSRLQKISEEYNVAVFVTNQMTADPGATMTFQADPKKPIGGHILAHASTTRISLRKGRGELRIAKIYDSPEMPENEATFAITAGGIGDAKE
